Source: patent US20160002357A1 (Pfizer, published 2016)
Numbering of substitutions follows the chain as printed.

B1: anti-P-cadherin scFv 153 alanine-mutant H1.8-Ala (scFv, V domains shown)
VH: EVQLVQSGAEVKKPGASVKVSCKASGYTFTSYAISWVRQAPGQGLEWMGWISAYNGNTNYAQKLQGRVTMTTDTSTSTAYMELRSLRSDDTAVYYCATIDTANAFGIWGQGTMVTVSS
VL: QSVLTQPPSVSAAPGQKVTISCSGSSSNIGNNYVSWYQQLPGTAPKLLIYDNNKRPSGIPDRFSGSKSGTSATLGITGLQTGDEADYYCGTWDSSLSGVVFGGGTKLTVL
notes: scFv on phage
B2: anti-P-cadherin scFv 153 alanine-mutant H2.10-Ala (scFv, V domains shown)
VH: B1 VH with A33G, N59A
VL: B1 VL
notes: scFv on phage
B3: anti-P-cadherin scFv 153 alanine-mutant H2.7-Ala (scFv, V domains shown)
VH: B1 VH with A33G, G56A
VL: B1 VL
notes: scFv on phage
B4: anti-P-cadherin scFv 153 alanine-mutant H2.11-Ala (scFv, V domains shown)
VH: B1 VH with A33G, Y60A
VL: B1 VL
notes: scFv on phage
B5: anti-P-cadherin scFv 153 alanine-mutant H2.6-Ala (scFv, V domains shown)
VH: B1 VH with A33G, N55A
VL: B1 VL
notes: scFv on phage
B6: anti-P-cadherin scFv 153 alanine-mutant H2.2-Ala (scFv, V domains shown)
VH: B1 VH with A33G, I51A
VL: B1 VL
notes: scFv on phage
B7: anti-P-cadherin scFv 153 alanine-mutant H2.8-Ala (scFv, V domains shown)
VH: B1 VH with A33G, N57A
VL: B1 VL
notes: scFv on phage
B8: anti-P-cadherin scFv 153 alanine-mutant H1.9-Ala (scFv, V domains shown)
VH: B1 VH with A33G, I34A
VL: B1 VL
notes: scFv on phage
B9: anti-P-cadherin scFv 153 alanine-mutant H2.9-Ala (scFv, V domains shown)
VH: B1 VH with A33G, T58A
VL: B1 VL
notes: scFv on phage
B10: anti-P-cadherin scFv 153 alanine-mutant H2.1-Ala (scFv, V domains shown)
VH: B1 VH with A33G, W50A
VL: B1 VL
notes: scFv on phage
B11: anti-P-cadherin scFv 153 alanine-mutant H2.5-Ala (scFv, V domains shown)
VH: B1 VH with A33G, Y54A
VL: B1 VL
notes: scFv on phage
B12: anti-P-cadherin scFv 153 alanine-mutant H1.10-Ala (scFv, V domains shown)
VH: B1 VH with A33G, S35A
VL: B1 VL
notes: scFv on phage
B13: anti-P-cadherin scFv 153 alanine-mutant H2.3-Ala (scFv, V domains shown)
VH: B1 VH with A33G, S52A
VL: B1 VL
notes: scFv on phage

molecular target: T1, P-cadherin-ECD1-3-Fc protein (human P-cadherin-Fc) (human, UniProt P22223 108-440); assay: phage scFv ELISA, coated P-cadherin-ECD1-3-Fc
T1 construct: Construct was expressed with signal peptide and pro-peptide (PACE co-transfected to process the propeptide); not shown: hinge and CH2 and CH3 domains of human IgG1
Experimental: P-cadherin-ECD1-3-Fc protein or negative control protein was coated overnight at 4° C. on 96-well Nunc Maxisorp® plates (Thermo Fisher Scientific, Madison, Conn.) at a concentration of 2 μg/mL in PBS+Ca²⁺ and Mg²⁺. Plates were washed three times using PBS+Ca²⁺ and Mg²⁺ and blocked for 1 hour at room temperature in 3% milk/PBS+Ca²⁺ and Mg²⁺. Phage samples prepared as described above were added to the blocked plates for 1 hour at room temperature. Plates were washed three times with PBS+Ca²⁺ and Mg²⁺ prior to the addition of secondary antibody (anti M13-HRP 1:2000, GE Healthcare, Piscataway, N.J.). Plates were incubated for a further 1 hour at room temperature and washed six times with PBS+Ca²⁺ and Mg²⁺. Signal was developed using TMB (SurModics, Eden Prairie, Minn.), the reaction stopped with H₂SO₄ and the absorbance read at 450 nm on an EnVision® plate reader (Perkin Elmer, Waltham, Mass.).

T1 sequence (P22223 108-440): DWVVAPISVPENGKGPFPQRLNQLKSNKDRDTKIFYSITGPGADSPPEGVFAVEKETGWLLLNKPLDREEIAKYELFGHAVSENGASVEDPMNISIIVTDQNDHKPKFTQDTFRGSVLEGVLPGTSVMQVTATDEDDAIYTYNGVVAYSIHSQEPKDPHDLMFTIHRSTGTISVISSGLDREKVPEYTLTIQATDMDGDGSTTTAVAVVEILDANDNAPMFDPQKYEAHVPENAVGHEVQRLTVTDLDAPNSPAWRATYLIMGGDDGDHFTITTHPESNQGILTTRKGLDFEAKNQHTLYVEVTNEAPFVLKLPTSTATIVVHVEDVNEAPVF

First: B1
Second: B2
The “% of binding of Clone #153 to human P-cadherin-Fc” value of the first is lower: 27% for the first, 172% for the second.

Going from B3 to B4, the “% of binding of Clone #153 to human P-cadherin-Fc” value rises from 114% to 163%.

Compared with B5, B6 is higher in “% of binding of Clone #153 to human P-cadherin-Fc” value: 80% for the first, 166% for the second.

Compared with B7, B8 is higher in “% of binding of Clone #153 to human P-cadherin-Fc” value: 162% for the first, 167% for the second.

Compared with B9, B10 is lower in “% of binding of Clone #153 to human P-cadherin-Fc” value: 154% for the first, 103% for the second.

First: B11
Second: B12
The “% of binding of Clone #153 to human P-cadherin-Fc” value of the first is lower: 34% for the first, 161% for the second.

With B13 the “% of binding of Clone #153 to human P-cadherin-Fc” value was 138%.

Compared with B1, B2 is higher in “Human P-cadherin-Fc binding (OD450)” value: 0.36 OD450 for the first, 2.27 OD450 for the second.

Going from B3 to B4, the “Human P-cadherin-Fc binding (OD450)” value rises from 1.5 OD450 to 2.15 OD450.

Compared with B5, B6 is higher in “Human P-cadherin-Fc binding (OD450)” value: 1.06 OD450 for the first, 2.2 OD450 for the second.

Going from B7 to B8, the “Human P-cadherin-Fc binding (OD450)” value rises from 2.14 OD450 to 2.21 OD450.

First: B9
Second: B10
The “Human P-cadherin-Fc binding (OD450)” value of the first is higher: 2.03 OD450 for the first, 1.37 OD450 for the second.

Compared with B11, B12 is higher in “Human P-cadherin-Fc binding (OD450)” value: 0.45 OD450 for the first, 2.13 OD450 for the second.

In the case of B13, the “Human P-cadherin-Fc binding (OD450)” value is reported as 1.83 OD450.

Going from B1 to B2, the “Z Score” value rises from -1.5 to 1.5.

Compared with B3, B4 is higher in “Z Score” value: 0.3 for the first, 1.3 for the second.

First: B5
Second: B6
The “Z Score” value of the first is lower: -0.4 for the first, 1.4 for the second.

First: B7
Second: B8
The “Z Score” value of the first is lower: 1.3 for the first, 1.4 for the second.

Compared with B9, B10 is lower in “Z Score” value: 1.1 for the first, 0.1 for the second.

Compared with B11, B12 is higher in “Z Score” value: -1.4 for the first, 1.3 for the second.

B13 was tested, and the “Z Score” value was 0.8.
